Laboratory results: article PMC9253678, “Computer-Aided Design of α-L-Rhamnosidase to Increase the Synthesis Efficiency of Icariside I” (Frontiers in Bioengineering and Biotechnology, 2022)

Substrate: COc1ccc(-c2oc3c(CC=C(C)C)c(O[C@@H]4O[C@H](CO)[C@@H](O)[C@H](O)[C@H]4O)cc(O)c3c(=O)c2O[C@@H]2O[C@@H](C)[C@H](O)[C@@H](O)[C@H]2O)cc1
Experiment: HPLC of icariside I formation, Michaelis-Menten nonlinear fit
Format: biochemical, Thermotoga petrophila
Conditions: pH 4.6, icariin 0.1–4 mg/ml
Excerpt: HPLC of icariside I formation, Michaelis-Menten nonlinear fit on […]

[1] = optimal conditions of the mutant: 70°C
[2] = optimal conditions of the mutant: 80°C

B1: TpeRha (Thermotoga petrophila RKU-1; D506A/K579A) (protein)
chain: MIQACDLRCEYLTSPVLGLDVIPRFSWRLKGNGKKQTRYKIIVSDNFDDIERGIGNVWESEKDSSKNLNIEYEGPKLKAYKGYYWRVKLWDEKENGPWSETAYFEMGPLEDWRGKWITMPSPLSFKDPAHRHELFYAMYFRKEFLLNKEVEKARVYVSGLGVYELHLNGKRVGNNVLDPAPTDYNKVALYSTYDVTQYLTTGKNTIGVILGNGRHIRDYGYSKPKLYLQLLVFYKDGSREFICSDETWKVSHGPLKENGIYFGEVYDARDEISGWDSPGFDDRNWSEVEIVEGPSLKAQLIPVIRVCEVIKPKRLWLSSRGTFIVDFGKNISGWVKLRVNNGKRGEKIIIRYAEVLDPSMDRLDTRNLRLARATDEYILKGQGVEIYEPRFTYHGFRYVEVEDYPGTLTSDNIEAMFVHTDVEKVGDFACSSELLNKIHSCVVNSQLANLMGIPTDCPQRDERMGWLGDAQLTVEEAMYNFDMAAFYTKYLMDIKLSQKEDGSISAVAPPYWKRYPSDPAWGTAYATILWYLYFFYEDRRVLEEHYDSLKRYVEFLRKNSPNHLTKLGQHGDWCPPGDAFPKRTPLILTSTWYYYHDTLILSEIAKILGKKEDEHEYRKLAGEIKEAFNRHFLRKVEDHTGRIVCFYRGIKLSPKDRIPTTQTCNVLPLWNKMVPEECREDVFKVLERLIEVDNDTHFDTGIVGTRYILEVLSENGRKDLALKLLLKEDYPSFGYMIKNGATTLWERWEKLEGTGMNSHNHVMLGSVDTWFYKYLSGIKPVAPGWKKIRIEPYFADQIDFVSAKIKTPNGSLEVSWKKQNKEYEIQIIIPVNTVGIFAVPESFKVSAINSKQVSYPSEFELEPGAYNIVLERVREC
notes: codon-optimized synthetic gene in pET-28a, E. coli BL21(DE3), Ni-NTA purified (His tag of vector); model domains span 1-861
Which Km [1] does the source give for B1 here?
The Km was 1.39 ± 0.45 µM.

And the Vmax [1]?
The Vmax was 1.37 µM/min.

And the kcat [1]?
Its kcat is 5.68e-05 s⁻¹.

And the kcat/Km [1]?
Its kcat/Km is 40.9 M⁻¹ s⁻¹.

B2: TpeRha (Thermotoga petrophila RKU-1; H570A/K579A) (protein)
chain: MIQACDLRCEYLTSPVLGLDVIPRFSWRLKGNGKKQTRYKIIVSDNFDDIERGIGNVWESEKDSSKNLNIEYEGPKLKAYKGYYWRVKLWDEKENGPWSETAYFEMGPLEDWRGKWITMPSPLSFKDPAHRHELFYAMYFRKEFLLNKEVEKARVYVSGLGVYELHLNGKRVGNNVLDPAPTDYNKVALYSTYDVTQYLTTGKNTIGVILGNGRHIRDYGYSKPKLYLQLLVFYKDGSREFICSDETWKVSHGPLKENGIYFGEVYDARDEISGWDSPGFDDRNWSEVEIVEGPSLKAQLIPVIRVCEVIKPKRLWLSSRGTFIVDFGKNISGWVKLRVNNGKRGEKIIIRYAEVLDPSMDRLDTRNLRLARATDEYILKGQGVEIYEPRFTYHGFRYVEVEDYPGTLTSDNIEAMFVHTDVEKVGDFACSSELLNKIHSCVVNSQLANLMGIPTDCPQRDERMGWLGDAQLTVEEAMYNFDMAAFYTKYLMDIKLSQKEDGSISDVAPPYWKRYPSDPAWGTAYATILWYLYFFYEDRRVLEEHYDSLKRYVEFLRKNSPNHLTKLGQAGDWCPPGDAFPKRTPLILTSTWYYYHDTLILSEIAKILGKKEDEHEYRKLAGEIKEAFNRHFLRKVEDHTGRIVCFYRGIKLSPKDRIPTTQTCNVLPLWNKMVPEECREDVFKVLERLIEVDNDTHFDTGIVGTRYILEVLSENGRKDLALKLLLKEDYPSFGYMIKNGATTLWERWEKLEGTGMNSHNHVMLGSVDTWFYKYLSGIKPVAPGWKKIRIEPYFADQIDFVSAKIKTPNGSLEVSWKKQNKEYEIQIIIPVNTVGIFAVPESFKVSAINSKQVSYPSEFELEPGAYNIVLERVREC
notes: as for B1
What does the source list for B2?
Km [2]: 0.93 ± 0.08 µM; Vmax [2]: 5.56 µM/min; kcat [2]: 0.000118 s⁻¹; kcat/Km [2]: 127 M⁻¹ s⁻¹
